Measurements published in patent US20250092135A1 (NANJING LEADS BIOLABS, published 2025).

Columns and labels:
[1] = target: T1, human MUC16 protein (ECT_TM huMuc16) on 293T cells (human); assay: flow cytometry, 293T/hMUC16 cells, PE anti-human IgG Fc secondary, MFI; EC50 table under the plot, unit from the axis Conc.(nM)
T1 chain: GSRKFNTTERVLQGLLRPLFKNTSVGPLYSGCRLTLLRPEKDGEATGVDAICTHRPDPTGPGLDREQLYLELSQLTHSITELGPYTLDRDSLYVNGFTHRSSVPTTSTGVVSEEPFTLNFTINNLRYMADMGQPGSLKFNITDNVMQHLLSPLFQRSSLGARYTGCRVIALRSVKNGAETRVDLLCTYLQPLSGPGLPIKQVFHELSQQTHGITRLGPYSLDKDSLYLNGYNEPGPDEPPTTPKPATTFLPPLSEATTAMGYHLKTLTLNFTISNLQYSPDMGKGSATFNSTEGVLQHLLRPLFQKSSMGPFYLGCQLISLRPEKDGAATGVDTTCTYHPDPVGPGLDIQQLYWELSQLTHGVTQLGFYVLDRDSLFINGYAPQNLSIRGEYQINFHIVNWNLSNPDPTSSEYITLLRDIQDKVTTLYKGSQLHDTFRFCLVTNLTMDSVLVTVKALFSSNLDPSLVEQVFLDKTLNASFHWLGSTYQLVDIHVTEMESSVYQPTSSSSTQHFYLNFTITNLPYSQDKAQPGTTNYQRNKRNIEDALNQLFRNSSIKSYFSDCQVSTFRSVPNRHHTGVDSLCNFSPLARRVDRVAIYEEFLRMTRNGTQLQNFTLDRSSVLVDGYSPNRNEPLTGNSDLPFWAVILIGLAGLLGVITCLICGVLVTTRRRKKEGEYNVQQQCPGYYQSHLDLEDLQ
Procedure: (§1) The serially diluted anti-human MUC16 antibodies (at an initial concentration of 200 nM, 4-fold dilution, 8 points in total) obtained in the present application were added to the cells, and the cells were incubated at 4° C. for 30 min. The cells were washed twice with PBS, and then fluorescent secondary antibody R-PE-conjugated AffiniPure Goat Anti-Human IgG, Fcγ Fragment Specific (Jackson ImmunoResearch, Cat #109-116-098) was added. The cells were incubated at 4° C. for 30 min. The cells were washed twice with PBS and then resuspended, and finally, fluorescence signals were detected using a BD Accuri C5 (BD Bioscience) flow cytometer.

[2] = target: T2, Human MUC16-His (human); assay: BLI (ForteBio Octet RED96), antibody on AHC sensor, 50 nM antigen, 1:1 model
T2 construct: The entry includes the C-terminal 6xHis tag; also called membrane-proximal end of the extracellular region of the human MUC16 protein; Human MUC16 protein
T2 chain: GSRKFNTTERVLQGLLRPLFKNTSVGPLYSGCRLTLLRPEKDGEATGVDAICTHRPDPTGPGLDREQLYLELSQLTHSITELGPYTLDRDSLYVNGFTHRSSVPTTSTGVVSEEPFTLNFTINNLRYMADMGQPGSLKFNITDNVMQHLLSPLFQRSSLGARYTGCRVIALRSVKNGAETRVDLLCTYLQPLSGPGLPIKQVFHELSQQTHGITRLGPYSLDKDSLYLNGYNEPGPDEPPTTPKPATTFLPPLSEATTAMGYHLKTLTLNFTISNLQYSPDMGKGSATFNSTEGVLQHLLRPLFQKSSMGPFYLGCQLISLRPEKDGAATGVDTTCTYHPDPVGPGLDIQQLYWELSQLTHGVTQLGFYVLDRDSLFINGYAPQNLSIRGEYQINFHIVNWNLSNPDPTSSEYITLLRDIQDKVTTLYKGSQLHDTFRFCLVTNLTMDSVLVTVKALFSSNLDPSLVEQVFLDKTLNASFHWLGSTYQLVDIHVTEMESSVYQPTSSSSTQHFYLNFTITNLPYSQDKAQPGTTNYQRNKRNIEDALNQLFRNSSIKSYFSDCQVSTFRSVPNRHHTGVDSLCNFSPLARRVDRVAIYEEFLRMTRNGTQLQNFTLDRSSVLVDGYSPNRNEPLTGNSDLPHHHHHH
Excerpt: (§2) The binding affinity of the anti-MUC-16 antibodies for the membrane-proximal end of the extracellular region of the human MUC16 protein (human MUC16-His, Table 26) and the membrane-proximal end of the extracellular region of the rhesus monkey MUC16 protein (rhesus monkey MUC16-His, Table 26) was detected by ForteBio Octet RED96, respectively. According to the manufacturer's instructions, an AHC sensor (ForteBio, Cat #18-5060) was placed in a running buffer (lx PBS, Hyclone, Cat #SH30256.01, containing 0.02% Tween 20, pH 7.0) and pre-equilibrated at room temperature for 10 min. In a 96-well plate, the kinetic assay was performed according to the following steps: a) equilibrating the baseline for 100 s with the running buffer; b) diluting the anti-MUC-16 antibodies with the running buffer to 5 μg/mL, immobilizing for 200 s, and stopping; c) equilibrating the baseline for 300 s with the running buffer; and d) diluting the human or rhesus monkey MUC16 protein with the running buffer to 50 nM, binding for 200 s, and dissociating for 600 s. The experimental data were fitted and calculated using a Fortebio Data Analysis software 1:1 binding model.

[3] = target: T3, Rhesus monkey MUC16-His (rhesus monkey); assay: as above
T3 construct: The entry includes the C-terminal 6xHis tag; also called membrane-proximal end of the extracellular region of the rhesus monkey MUC16 protein
T3 chain: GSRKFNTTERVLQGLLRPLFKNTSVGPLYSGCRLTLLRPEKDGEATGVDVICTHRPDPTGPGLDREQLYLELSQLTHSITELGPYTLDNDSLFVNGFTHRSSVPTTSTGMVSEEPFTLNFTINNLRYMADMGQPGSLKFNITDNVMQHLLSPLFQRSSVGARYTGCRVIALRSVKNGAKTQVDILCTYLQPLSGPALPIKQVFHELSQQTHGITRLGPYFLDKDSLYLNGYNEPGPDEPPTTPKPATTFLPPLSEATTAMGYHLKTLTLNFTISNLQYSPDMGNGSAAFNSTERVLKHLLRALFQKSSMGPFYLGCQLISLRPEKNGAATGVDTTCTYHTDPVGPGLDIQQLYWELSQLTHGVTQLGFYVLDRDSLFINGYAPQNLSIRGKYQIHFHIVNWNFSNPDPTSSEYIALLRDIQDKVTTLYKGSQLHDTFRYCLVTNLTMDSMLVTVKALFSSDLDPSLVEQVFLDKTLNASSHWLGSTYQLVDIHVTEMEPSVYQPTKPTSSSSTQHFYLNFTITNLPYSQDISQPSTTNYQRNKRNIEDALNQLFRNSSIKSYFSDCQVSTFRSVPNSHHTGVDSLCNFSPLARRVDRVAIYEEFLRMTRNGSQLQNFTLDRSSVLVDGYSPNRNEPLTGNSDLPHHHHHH
Excerpt: as §2

[4] = target: T4, rhesus monkey MUC16 protein (ECT_TM RhMuc16) on 293T cells (rhesus monkey); assay: flow cytometry, 293T/rhesus MUC16 cells, PE anti-human IgG Fc secondary, MFI; EC50 table under the plot, unit from the axis Conc.(nM)
T4 chain: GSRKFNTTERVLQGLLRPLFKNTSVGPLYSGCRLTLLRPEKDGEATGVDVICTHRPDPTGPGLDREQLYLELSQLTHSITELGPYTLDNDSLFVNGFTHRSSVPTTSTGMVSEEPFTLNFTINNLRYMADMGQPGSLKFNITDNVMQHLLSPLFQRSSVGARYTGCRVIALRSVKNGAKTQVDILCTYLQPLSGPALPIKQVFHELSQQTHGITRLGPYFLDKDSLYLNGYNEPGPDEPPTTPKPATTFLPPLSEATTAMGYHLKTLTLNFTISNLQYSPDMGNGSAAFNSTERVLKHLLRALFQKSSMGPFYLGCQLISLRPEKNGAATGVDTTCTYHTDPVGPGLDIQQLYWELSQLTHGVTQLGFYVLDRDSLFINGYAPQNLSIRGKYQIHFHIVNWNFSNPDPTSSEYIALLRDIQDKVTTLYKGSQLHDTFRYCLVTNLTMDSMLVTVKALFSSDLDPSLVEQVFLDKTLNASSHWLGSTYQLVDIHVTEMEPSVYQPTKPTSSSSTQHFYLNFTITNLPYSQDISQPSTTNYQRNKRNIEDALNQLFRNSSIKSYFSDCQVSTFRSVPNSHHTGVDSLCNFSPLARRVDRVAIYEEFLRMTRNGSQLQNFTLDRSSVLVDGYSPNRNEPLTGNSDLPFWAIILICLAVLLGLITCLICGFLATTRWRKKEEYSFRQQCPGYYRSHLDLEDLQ
Procedure: as §1

EC50 [1]: 8.72 nM
Kd [2]: 1.36 nM
koff [2]: 0.000348 s⁻¹
kon [2]: 255000 M⁻¹ s⁻¹
Kd [3]: 1.2 nM
koff [3]: 0.000945 s⁻¹
kon [3]: 791000 M⁻¹ s⁻¹
EC50 [4]: 11.1 nM
B1: anti-MUC16 antibody 776.1(C33A) (antibody, human IgG1, kappa, L234A L235A, V domains shown)
VH: EVQLQQSGPELVKPGASVKISCKASGYTFTDYNIHWVKQSHGKILEWIGYIYPYNGVSDYNQNFKSKATLIVDNSSNTAYMELRSLTSEDSAVYYCARWDFGSGYYFDYWGQGTTLTVSS
VL: QIVLSQSPAILFASPGETVTMTCRASSSVIYMAWNQQKPGSSPKPWIYGTSTLASGVPTRFSGSGSGTSYSLTISRVEAEDAATYYCQQWSSNPFTFGSGTKLEIKR
